The nanobody polyreactivity screen of Harvey et al. (2022)

experiment: yeast display, Sf9 membrane polyspecificity reagent, FACS + sequencing; frameworks hold sequencing errors
Procedure, shortened: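 Nanobodies from a synthetic yeast display library (Saccharomyces cerevisiae BJ5465), induced 36–48 hours with galactose, were stained 1 hour at 4 °C with 10% biotinylated, detergent-solubilized Sf9 membrane reagent, enriched on streptavidin microbeads, then FACS-sorted. Anti-HA (expression) and streptavidin (reagent binding) fluorescence set low and high (top ~1%) gates. Polyreactivity labels come from the gate of origin. Genes were colony-PCR amplified, MiSeq 2 × 250 sequenced and filtered by CDR length.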

| Sequence | polyreactivity (PSR sort gate) |
| --- | --- |
| QVQLVESGGGLVQAGGSLRLSCAASVFTIPPYAMGWYRRAPGKERELVARITWSGDRTYYADSVKGRFTISRDNAKNTFYLQINSLKPEDTAVYYCADDSAQYYEMDYWGQGTQVTVSS | high polyreactivity |
| QVQLVESGGGLVQAGGSLRLSCAASVIIYHYYAMGWYRPAPGKERELVAAIDSGGSTYYADSVKGRFTISRDNAKNTVYLQMNSLKPEDTADYYCNAGPSVTSGYDYDYWGHGTQVTVSS | low polyreactivity |
| QVQLVESGGGLVQAGGSLRLSCAASVIIYLDNAMVWYRQAPRKEMEMVADITSSGGSTYYADSVKGRFTISRDNAKNTVSLQMNSLKPEDTAVYYCAATRPSYNDAESDYWGQGTQVTVSS | low polyreactivity |
| QVQLVESGGGLVQAGGSLRLSCAASVITFSYNAMGWYRQAPGKERELVAAISSNSDSTYYADSVKGRFTISRDIAKNTVYLQMNSLKPVDTAVYYCAADTPDAPDYSGFYYWGQGTQVTVSS | low polyreactivity |
| QVQLVESGGGLVQAGGSLRLSCAASVLTFETYAMGWYRQAPGKERELVAAISFSGDSTYYADSVKGRFTISRDNAKNTVYLQMNSLKPEDTAVYYCAAEQYYAWYIVGPDYYYWGQGTQVTVSS | high polyreactivity |
| QVQLVESGGGLVQAGGSLRLSCAASVRIFYRYGMGLYRQAPGKERELVASITRGGSTYYADSVKGRFTISRDNAKNTVYLQMNSLKPEDTAVYYCATKSSAGYDYWGQGTQVTVSS | low polyreactivity |
| QVQLVESGGGLVQAGGSLRLSCAASVRIYPYYDRGWYRQAPGKDRELVASTNYADSVKGRFTISRDNAKNTVYLQMNSLKPEDTAVYYCNKRIYGWGGSRYDYWGQGTQVTVSS | low polyreactivity |
| QVQLVESGGGLVQAGGSLRLSCAASVRIYRPYAMGRYRQAPGKERELVAAISGSGGSTYYADSVKGRFTISRDNAKNTVYLQMNSLKPEDTAVYYCNAAPKWSDYFYPLEYWGQGTQVTVSS | low polyreactivity |
| QVQLVESGGGLVQAGGSLRLSCAASVRTFEPNAMGWYRQAPGKERELVAAISSSDGSTYYADSVKGRFTISRDNAKNTVYLQMNSLKPEDTAVYYCAADAGYLYDWPYNYYYWGQGTQVTVSS | low polyreactivity |
| QVQLVESGGGLVQAGGSLRLSCAASVRTFNFYASGLYRQATRKQRELVAAIRRGGSTNYADSVKGRFTISRDNAKNTVYLQMNSLIREDTAVYYCNKRVWYPYWTVDYWGQGTQVTVSS | low polyreactivity |
| QVQLVESGGGLVQAGGSLRLSCAASVRTFSYYAMGWYRQAPGKERELVASISGGGRTNYADSVKGRFTISRDNAKKTVYLQMNSLKPEDTAVYYCAARYQITRQYKRGYWGQGNQVTVSS | high polyreactivity |
| QVQLVESGGGLVQAGGSLRLSCAASVRTFTPYAMGWYRQAPGKEREFVAAISIVGRKKYADSVKGRFTISRDNAKNTVYLQMNSLKPEDTEVYYCNAQDSRDRKFYWGYTRGHWGLGTQVTVSS | low polyreactivity |
| QVQLVESGGGLVQAGGSLRLSCAASVSIFARYAMGWYRQAPGKERELVAAITSGTSTNYADSVKGRFTISRDNAKNSVYLQMNSLKPEDTAVYYCNARHTWHQTYDYCGQGTQVTVSS | low polyreactivity |
| QVQLVESGGGLVQAGGSLRLSCAASVSIFRVYALGWYRQEPGKERELVAAITNGGNTNYADSVKGRFTISRDNAKNTVYLQMYSLKPVDTAVYYCAATLNRYWFRLYYYLGQGTQVTVSS | high polyreactivity |
| QVQLVESGGGLVQAGGSLRLSCAASVSIFYHYAMGWYRQAPGKESELVAAIDRTGGSTYYADSVKGRFTISRDNAKNTVYLQMNSLKPEDTAVYYCDADWDYADYYGFQYDYWGQGTQVTVSS | low polyreactivity |
| QVQLVESGGGLVQAGGSLRLSCAASVSIFYVYARGCYRQAPGKERELVAAITSSGTTNYADSVKGRFTISRDNAKNTVYLQMNSLKPEDTAVYYCAADPDSGQVPFDYWGQGTHVTVSS | low polyreactivity |
| QVQLVESGGGLVQAGGSLRLSCAASVSTFANNAMGWYRQAPGKERELVASITTDGSTNYADSVKGRFTISRDNAKNTVYLQMNSLKPEDTAVYYCAADYHTPSSFAPIELYDYWGQGTQVTVSS | low polyreactivity |
| QVQLVESGGGLVQAGGSLRLSCAASVSTFAPNAMGWYRQAPGKEMELVASIRRGGSTHYADSVKGRFTISRDNAKNTVYLQMNSLQPEDTAVYYCAAEFRDVSSNGYDYWGQGTQVTVSS | low polyreactivity |
| QVQLVESGGGLVQAGGSLRLSCAASVSTFDSYVMGWYRQAPGKERELVAAITSGGSTYYADSVKGRFTISRDNAKNTVYLQMNSLKPVDTAVYYCNRDERVGKWGYYWGQGTQVTVSS | low polyreactivity |
| QVQLVESGGGLVQAGGSLRLSCAASVSTFISYAMGWYRQAPGKERELVAAISSSTGRTYYADSVKGRFTISRDNAKNTVYLQLNSLKPEDTAVFYCNAVHRYERDYWGQGTQVTVSS | high polyreactivity |
| QVQLVESGGGLVQAGGSLRLSCAASVSTFWFYAMGWYRQAPGKERELVAVISNSGSTYYADSVKGRFTISRDNAKNTVYLQMNSLKPEDTAVYYCAADVEGWTVESDVYRVGYDYWGQGTQVTVSS | low polyreactivity |

| Sequence | polyreactivity (PSR sort gate) |
| --- | --- |
| QVQLVESGGGLVQAGGSLRLSCAASVSTFYGYAMGWYRQAPGKERELVAAITSTVITDYADSVKGRFTISRDNAKNTVYLQMNSLKPEDTAVYYCSADRYDSSQFYYWGQGTQVTVSS | low polyreactivity |
| QVQLVESGGGLVQAGGSLRLSCAASVYGMGWYRQAPGKERELVAAISNGGTTYYADSVKGRFTISRDNAKNTVYLQMNSLKPEDTAVYYCAARSWPGGFIYYYWGQGTQVTVSS | low polyreactivity |
| QVQLVESGGGLVQAGGSLRLSCAASVYTSNYYAMGWYRQAPGKEREFVAAITASSVSTYYADSVKGRFTISRDNAKNTVYVQMNSLKPEDTAVYYCAVVYISYTSWLWVYWLVDFDYWGQGTQVTVSS | low polyreactivity |
| QVQLVESGGGLVQAGGSLRLSCAASYAMGWYRQAPGKERELVATITSGGVSTYYADSVKGRFTISRDNAKNTVYLQMNSLKPEDTAVYYCAATASHSTSADYDYWGQGTQVTVSS | low polyreactivity |
| QVQLVESGGGLVQAGGSLRLSCAATGFIFPLYAMGWYRQAPGKQSELVAAITWRGDTTSYADSVKGRFTISRDNAKNTVYLQMNSLKPVDPAVYYCAADSYRYRPGYGPVLYDYWGQGTQVTVSS | high polyreactivity |
| QVQLVESGGGLVQAGGSLRLSCAATGFTFGRYAMGWYRQAPGKERELVAAITWSGGSTYYADSVKGRFTISRDNAKNTVYLQMNSLKPEDTAVYYCNRLSNNREYDYWGQGTQVTVSS | high polyreactivity |
| QVQLVESGGGLVQAGGSLRLSCAATGGIFDYYAMGWYRQAPGKERALVAAIRGGGSTNYADSVKGRFTISRDNAKNTVYLQMNSLKPEDTAVYYCAKDSPFTSVTVLAPIIYDSWGQGTQVTVSS | low polyreactivity |
| QVQLVESGGGLVQAGGSLRLSCAATGIIFGTYAMGWYLQAPGTERELVAVISWRGGTYADSVKRRFTISRDNAKNTVYLQMNSLKPEDSAVYYCNARTWARLGSYWWIVDSWGQGTQVTVSS | high polyreactivity |
| QVQLVESGGGLVQAGGSLRLSCAATGITFGRNTMGWYRQAPGKERDLVAAIDSGGNTYADSVKGRFTISRDNAKNTVYLQMNSLKPEDTGVFYSAGDGGELSSYGYWGQGTQVTVSS | low polyreactivity |
| QVQLVESGGGLVQAGGSLRLSCAATGRIFNYYAMGWYRQAPGKERELVAAISNGGSTYYADSVKGRFTISRDNAKNTVYLQMNSLKPEDTAVYYCNAAARNGYARRVYYWGQGTQVTVSS | high polyreactivity |
| QVQLVESGGGLVQAGGSLRLSCAATGRIFRYYAMGLYRQAPGNERELVAAIRRGGSTTYADSVKGRFTISRDNAKNTFYLQMNSLKPEDTAVYYCAATQYYRGYDYWGQGSQVTVSS | high polyreactivity |
| QVQLVESGGGLVQAGGSLRLSCAATGRIFRYYTMGWYRQAPGKERELVAAITSSSGSTYYADSVKGRFTISRDNAKNTVYLQMNSLKPEDTAVYYCNAVRYTTQTPNVDYGYWGQGTQVTVSS | high polyreactivity |
| QVQLVESGGGLVQAGGSLRLSCAATGRIFTTYAMGWYRQAPGKERELVAAITSGGGTYYADSVKGRFTISRDNAKNTVYLQMNSLKPEDTAVYYCNADYSADYYWYYYCGQGTQVTVSS | low polyreactivity |
| QVQLVESGGGLVQAGGSLRLSCAATGRIFWVYAMGWYRQAPGKERELVAAINTSVGRTHYADSVKGRFTISRDNAKNTVYLQMNSLKPEDTAVYYCAADVKRYGWEYGYWGQGTQVTVSS | low polyreactivity |
| QVQLVESGGGLVQAGGSLRLSCAATGRIFYYYTMGWYRQAPGKERELVAAISWGGVNTDYADSVKGRFTISRDNAKNTVYLQMNSLKPEDTAVYYCAAGRWSVGTYDYWGQGTQVTVSS | low polyreactivity |
| QVQLVESGGGLVQAGGSLRLSCAATGRILYYYAMVWYRQAPGKEREVVAASTSGGSTYADSVKGRFTISRDNAKNTVYLQMNSQKPEDTAVYYCNADSTVYDTEYAYWGQGTQVTVSS | low polyreactivity |
| QVQLVESGGGLVQAGGSLRLSCAATGRTFEGYAMGWYRQAPGKERELVAAISNSGGSTYYADSVKGRFTISRDNAKNTVYLQMNSLKPEDTAVYDCAALSRIRRYGYWGQGTQVNVSS | high polyreactivity |
| QVQLVESGGGLVQAGGSLRLSCAATGRTFGFNDMGWYRKATGKEREFVAAINSGGNTYYADSVKGRFTISRDNAKNTVYLQMNSLKPEDTAVYECAVKRASRYYVRKEYYYWGQGTQVTVSS | high polyreactivity |
| QVQLVESGGGLVQAGGSLRLSCAATGRTFGSNAMGWYRQAPGKERELVAAISLRGGRTYYADSVKGRFTISRDTAKNTVYLQMNSLKPEDTAVYYCNAVHYLYGARSRLTYDYWGQGTQVTVSS | high polyreactivity |
| QVQLVESGGGLVQAGGSLRLSCAATGRTFTVNPMGWYIQAPGKERELVAAITGSGGSTYYADSVKGRFTISRDNGKNTVYLQMNSLKPEDTAGYYCAADVNWFRWWSGSVELDYWGQGTQVTVTS | low polyreactivity |
